Columns and labels:
[1] = Dynamic light scattering of nanoemulsions and nanocapsules; format: physicochemical; settings: for Number-average diameter (dn) of oil droplets in nanoemulsion / Polydispersity index (PDI) of nanoemulsion: 400 μM peptide, 800 μM ZnCl2, 2% v/v Miglyol 812, HEPES pH 7.0, after sonication; for Increase in number-average diameter of nanoemulsion after dialysis: dialysis 20 hours against HEPES 25 mM, pH 7.5 or 8.0, 10 kDa membrane; for PDI of nanocapsules: 80 mM TEOS, 25 mM HEPES
Protocol: (§1) The size distribution profile of the nanoemulsions and nanocapsules was determined by dynamic light scattering (DLS, Malvern Zetasizer Nano ZS) and the samples were diluted by a factor of 100 prior to the measurement. The morphology and shell thickness of the nanocapsules were examined by transmission electron microscopy (TEM, JEOL 1010, 100 kV accelerating voltage). Samples (2 μL) were taken directly from the reaction mixtures, deposited onto Formvar-coated copper grids (200 mesh), and left to air-dry prior to examination. Samples were also analyzed for high-resolution (HR) TEM (JEOL 2100, 200 kV accelerating voltage) equipped with an energy dispersive X-ray spectroscopy (EDS) detector. The formation of amorphous silica was verified by selected area electron diffraction (SAED) in HRTEM.
Separate solutions of SEQ ID NO: 153 (400 μM) and SEQ ID NO: 154 (400 μM) in HEPES buffer (25 mM, pH 7.0) in the presence of ZnCl2 (800 μM) were mixed with Miglyol® 812 (2% v/v) by sonication (Branson Sonifier 450, 10 W, 4×30 s burst and interspersed with cooling in an ice bath for 60 s). After sonication, the compositions were macroscopically identical and homogeneous with cloudy appearance.
The nanoemulsion compositions (1 mL) were dialyzed against HEPES buffer (500 mL, 25 mM, pH 7.5 or 8.0) using a 10 kDa cellulose membrane to adjust pH of each nanoemulsion and to remove residual peptide. After dialysis for 20 hours there was only a slight increase, approximately 5%, in the number-average diameter of nanoemulsions stabilized by either SEQ ID NO: 153 or SEQ ID NO: 154 and the PDIs remained similar. The nanoemulsions were stable to dialysis.
(§2) Each of the dialyzed nanoemulsion compositions from Example 2 at pH 7.5 or 8.0 were divided into a number of separate glass vials. One composition of each peptide nanoemulsion at each pH was retained as a control. To the other compositions, three concentrations of TEOS were added to separate vials, 20 mM, 40 mM and 80 mM, and the compositions were gently stirred for 20 to 50 hours. The compositions were then analyzed by DLS and a size increase consistent with the formation of a thick layer surrounding the oil droplet core in TEOS-containing solutions was observed.

[2] = Precipitation of silica from TEOS by biosurfactants; settings: 400 μM peptide, 25 mM HEPES pH 7.5 and 8.0, 80 mM TEOS, room temperature
Protocol: To test whether biosurfactants SEQ ID NO: 153 and SEQ ID NO: 154 were able to precipitate silica, separate aqueous solutions of SEQ ID NO: 153 and SEQ ID NO: 154 (400 μM) in HEPES buffer (25 mM) at pH 7.5 and 8.0 were prepared and TEOS (80 mM) was added. A solution of each biosurfactant was retained without TEOS as a control. The mixtures were gently stirred at room temperature. A transparent gel-like precipitate formed within a few minutes in those compositions which had TEOS added whereas the control remained a solution. The precipitate was isolated and extensively washed with water and vacuum dried. The precipitate was analyzed by elemental analysis using EDS in conjunction with scanning electron microscopy (SEM, JEOL 6610). […] Excess oxygen, carbon and sulfur also found in the analysis were consistent with entrapped peptide.

[3] = TEM measurement of nanocapsule silica shell thickness and diameter; format: physicochemical
Protocol: as §1, §2
The shell thickness of at least 100 individual nanocapsules were measured by TEM (a dark ring around the perimeter of the bright core). The silica layer formed on SEQ ID NO: 153 and SEQ ID NO: 154 nanoemulsions at pH 7.5 was 22±5 nm and 12±2 nm thick respectively and at pH 8.0, 35±5 nm and 27±6 nm respectively.
SEQ ID NO: 155 was used to facilitate formation and stabilization of nanoemulsions, and subsequently direct nucleation and growth of silica shell encasing the nanoemulsion template. A solution of SEQ ID NO: 155 (115 μM) in HEPES buffer (25 mM, pH 7.5) was mixed with Miglyol® 812 oil (10% v/v) by sonication at 10 W using Branson Sonifier 450 for 4×30 s burst and interspersed with cooling in an ice bath for 60 s. An aliquot of SEQ ID NO: 155 nanoemulsions (400 μL) was transferred to a glass vial and added with TEOS (80 mM). The mixture was then stirred at room temperature for 20 h to form silica shell surrounding the nanoemulsions.

[4] = pH 7.5, 20 hours silicification
[5] = pH 8.0, 20 hours silicification
[6] = pH 7.5, at least 100 nanocapsules by TEM
[7] = pH 8.0, at least 100 nanocapsules by TEM
[8] = 115 μM protein, 10% v/v Miglyol 812, pH 7.5, 80 mM TEOS, 20 h

With “Ac-MKQLAHSVSRLEHA-RKKRKKRKKRKKGGGY-CONH2 (Ac-MKQLAHSVSRLEHARKKRKKRKKRKKGGGY-NH2) [SEQ ID NO: 154, custom synthesized mineralizing biosurfactant peptide, Mw 3632.4]” the “Number-average diameter (dn) of oil droplets in nanoemulsion” value [1] was about 40 nm, the “Polydispersity index (PDI) of nanoemulsion” value [1] was 0.293 and the “Increase in number-average diameter of nanoemulsion after dialysis” value [1] was “approximately 5%”. For the same molecule, the PDI of nanocapsules [1, 4] was 0.146, the PDI of nanocapsules [1, 5] was 0.233 and the “Ability to precipitate/nucleate silica” value [2] was “can nucleate silica”. For the same molecule, the Silica shell thickness ([3]; 30 hours, 20 mM TEOS, 25 mM HEPES pH 7.5) was 5±1 nm, the Silica shell thickness ([3]; 30 hours, 40 mM TEOS, 25 mM HEPES pH 7.5) was 10±2 nm and the Silica shell thickness ([3]; 30 hours, 80 mM TEOS, 25 mM HEPES pH 7.5) was 16±3 nm. The Silica shell thickness [3, 6] was 12±2 nm and the Silica shell thickness [3, 7] was 27±6 nm.

For “Ac-MKQLAHSVSRLEHA-SSKKSGSYGGSKGSKRRIL-NH2 (Ac-MKQLAHSVSRLEHASSKKSGSYGGSKGSKRRIL-NH2) [SEQ ID NO: 153, custom synthesized mineralizing biosurfactant peptide, Mw 3643.2]”, the “Number-average diameter (dn) of oil droplets in nanoemulsion” value [1] was about 80 nm, the “Polydispersity index (PDI) of nanoemulsion” value [1] was 0.329 and the “Increase in number-average diameter of nanoemulsion after dialysis” value [1] was “approximately 5%”. The PDI of nanocapsules [1, 4] was 0.242, the PDI of nanocapsules [1, 5] was 0.794 and the “Ability to precipitate/nucleate silica” value [2] was “can nucleate silica”. The Silica shell thickness [3, 6] was 22±5 nm and the Silica shell thickness [3, 7] was 35±5 nm.

B1: MDPS MKQLADS LHQLARQ VSRLEHA DPS MKQLADS LHQLARQ VSRLEHA DPS MKQLADS LHQLARQ VSRLEHA DPS MKQLADS LHQLARQ VSRLEHA EPS-RKKRKKRKKRKKGGGY (protein)
chain: MDPSMKQLADSLHQLARQVSRLEHADPSMKQLADSLHQLARQVSRLEHADPSMKQLADSLHQLARQVSRLEHADPSMKQLADSLHQLARQVSRLEHAEPSRKKRKKRKKRKKGGGY
notes: recombinant mineralizing biosurfactant protein produced in Escherichia coli
In the case of B1, the “Outer diameter of nanocapsules” value [3, 8] is reported as 249±29 nm and the Silica shell thickness [3, 8] is reported as 26±2 nm.

From patent US11266968B2, “Mineralizing biosurfactant used for nucleating silica” (THE UNIVERSITY OF QUEENSLAND, priority 2013, dated 2022)
